This note sets out measurements from PMC11446229.

The term stoichiometry N denotes a count of units in the complex or per binding partner.

The target in the test is T1, CyaY, the frataxin homolog of Escherichia coli (E. coli), P27838.
T1 chain: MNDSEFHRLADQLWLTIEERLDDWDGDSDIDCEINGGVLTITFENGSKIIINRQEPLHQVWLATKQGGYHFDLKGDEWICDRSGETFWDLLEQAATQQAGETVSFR
The experiment in a line: native MS; CyaY above 35 uM in the titration of SufSE; charge states of CyaY multimers (Fig. S4). The conditions noted are these: remark: other sources report otherwise.

B1: CyaY, the frataxin homolog of Escherichia coli, P27838 1-106 (natural protein)
chain: MNDSEFHRLADQLWLTIEERLDDWDGDSDIDCEINGGVLTITFENGSKIIINRQEPLHQVWLATKQGGYHFDLKGDEWICDRSGETFWDLLEQAATQQAGETVSFR
B1 had a stoichiometry N of 2 to 3.
